Test results published in US20250163145A1 (SHIONOGI, published 2025).
Residue numbers refer to the chain shown, from its start. In names and notes the source's numbering stands. Where no end group is shown, it is not given here.

What was measured:
[1] = molecular target: T1, epitope peptide Cys-CE3C long (also: biotin label, site not given here); experiment: competitive ELISA, unlabeled vs biotin-labeled peptide, antibody on anti-human IgG plate
T1 peptide: CSVNVDKQPKYEYSL
Procedure: A diluted solution of the obtained recombinant humanized antibody, a biotin-labeled immunogen peptide, and Streptavidin-HRP (manufactured by PIERCE) were added to an anti-human IgG antibody-immobilized plate, and reacted overnight at 4° C. […] Next, a recombinant human antibody at the dilution rate, a biotin-labeled immunogen peptide, and Streptavidin-HRP (manufactured by PIERCE) were added. At the same time, a dilution series of unlabeled immunogenic peptide was added and reacted overnight at 4° C. After washing twice with ELISA wash buffer, TMB-Substrate Chromogen (manufactured by Thermo Fisher Scientific) was added to develop color, the reaction was stopped with an equal amount of 0.5N sulfuric acid, and the absorbance at 450 nm was measured. The concentration of the unlabeled peptide which attenuated the signal of the biotin-labeled peptide by half was defined as the affinity (IC50).
A mutant having the heavy chain variable region represented by IGHV7-4-1 Q43R, G44S, N58L, N100D, T100aD, R94P (SEQ ID NO: 33) and the light chain variable region represented by IGKV4-1 (SEQ ID NO: 18) produced in Example 3 was produced. New mutants (h15H11-55 to 67) were produced in which various mutations were introduced into the light chain human framework sequence of the produced mutants, and affinity evaluation was performed on the produced mutants by the method described in Example 5.

[2] = molecular target: T1, epitope peptide Cys-CE3C long; experiment: ELISA, supernatant IgG on anti-human IgG plate, biotin-peptide + streptavidin-HRP; titer per unit IgG
Procedure: The amount of IgG in the supernatant was determined by the following method. To evaluate the amount of IgG in the supernatant, the culture supernatant was added to an anti-human IgG antibody (manufactured by Jackson) immobilized plate, after reacting at room temperature for 3 hours, washed twice with ELISA wash buffer, and HRP-labeled anti-human IgG antibody (manufactured by Jackson) was reacted at 4° C. overnight. After washing twice with ELISA wash buffer and developing color by adding TMB-Substrate Chromogen (manufactured by Thermo Fisher Scientific), the reaction was stopped with an equal volume of 0.5N sulfuric acid, and the absorbance at 450 nm was measured to calculate (A) the dilution factor of the culture supernatant at which the OD was 1.0.
The titer of IgG in the supernatant against the epitope peptide was determined by the following method. In order to evaluate the titer of IgG in the supernatant against epitope peptides, the culture supernatant was added to an anti-human IgG antibody (manufactured by Jackson) immobilized plate, reacted for 3 hours at room temperature, and then washed twice with ELISA wash buffer, and a biotin-labeled epitope peptide (Cys-CE3C long: SEQ ID NO: 13) and Streptavidin-HRP (manufactured by PIERCE) were added and reacted overnight at 4° C. After washing twice with ELISA wash buffer and developing color by adding TMB-Substrate Chromogen (manufactured by Thermo Fisher Scientific), the reaction was stopped with an equal volume of 0.5N sulfuric acid, the absorbance at 450 nm was measured to calculate (B) the dilution ratio of the culture supernatant at which the OD was 1.0.
The titer (ratio) against the epitope peptide (Cys-CE3C long: SEQ ID NO: 13) per unit IgG amount was calculated as (B)/(A).

B1: h15H11-61 (antibody, human IgG4 S228P, kappa, V domains shown)
VH: QVQLVQSGSELKKPGASVKVSCKASGYTFTDYNMHWVRQAPGRSLEWMGRINPKNGVILSNEKFKDRFVFSLDTSVSTAYLQISSLKAEDTAVYYCAPSYYGGDDDAYWGQGTLVTVSS
VL: DIVMTQSPDSLAVSLGERATINCRASDSVDNYGISFLNWFQQKPGQPPKLLIYAASSQGSGVPDRFSGSGSGTDFTLTINPMEAEDTANYYCQQSKEFPWTFGGGTKVEIKR
notes: hIgG4Pro/hIgK
IC50 [1]: 0.79 nM

B2: humanized 15H11 CDR graft IGKV3-11 / IGHV1-2 (R94P) (antibody, human IgG4 S228P, kappa, V domains shown)
VH: QVQLVQSGAEVKKPGASVKVSCKASGYTFTDYNMHWVRQAPGQGLEWMGRINPKNGVINSNEKFKDRVTMTRDTSISTAYMELSRLRSDDTAVYYCAPSYYGGNTDAYWGQGTLVTVSS
VL: EIVLTQSPATLSLSPGERATLSCRASESVDNYGISFMNWYQQKPGQAPRLLIYAASSQGSGIPARFSGSGSGTDFTLTISSLEPEDFAVYYCQQSKEFPWTFGGGTKVEIKR
notes: hIgG4Pro/hIgK
(B)/(A) titer (ratio) against the epitope peptide per unit IgG amount [2]: 0.15

B3: humanized 15H11 CDR graft IGKV3-11 / IGHV1-2 (antibody, human IgG4 S228P, kappa, V domains shown)
VH: B2 VH with P98R
VL: B2 VL
notes: hIgG4Pro/hIgK
(B)/(A) titer (ratio) against the epitope peptide per unit IgG amount [2]: 0.05

B4: humanized 15H11 CDR graft IGKV3-11 / IGHV1-3 (R94P) (antibody, human IgG4 S228P, kappa, V domains shown)
VH: B2 VH with G44R, M70I, I76A, R85S, D89E
VL: B2 VL
notes: hIgG4Pro/hIgK
(B)/(A) titer (ratio) against the epitope peptide per unit IgG amount [2]: 0.12

B5: humanized 15H11 CDR graft IGKV3-11 / IGHV1-18 (R94P) (antibody, human IgG4 S228P, kappa, V domains shown)
VH: B2 VH with R72T, I76T, S84R, R85S
VL: B2 VL
notes: hIgG4Pro/hIgK
(B)/(A) titer (ratio) against the epitope peptide per unit IgG amount [2]: 0.15

B6: humanized 15H11 CDR graft IGKV3-11 / IGHV1-46 (R94P) (antibody, human IgG4 S228P, kappa, V domains shown)
VH: B2 VH with I76T, A79V, R85S, D89E
VL: B2 VL
notes: hIgG4Pro/hIgK
(B)/(A) titer (ratio) against the epitope peptide per unit IgG amount [2]: 0.12

B7: humanized 15H11 CDR graft IGKV3-20 / IGHV1-2 (antibody, human IgG4 S228P, kappa, V domains shown)
VH: B2 VH with P98R
VL: B2 VL with S81R
notes: hIgG4Pro/hIgK
(B)/(A) titer (ratio) against the epitope peptide per unit IgG amount [2]: 0.04

B8: humanized 15H11 CDR graft IGKV3-20 / IGHV1-2 (R94P) (antibody, human IgG4 S228P, kappa, V domains shown)
VH: B2 VH
VL: B2 VL with S81R
notes: hIgG4Pro/hIgK
(B)/(A) titer (ratio) against the epitope peptide per unit IgG amount [2]: 0.12

B9: humanized 15H11 CDR graft IGKV3-20 / IGHV1-3 (R94P) (antibody, human IgG4 S228P, kappa, V domains shown)
VH: B2 VH with G44R, M70I, I76A, R85S, D89E
VL: B2 VL with S81R
notes: hIgG4Pro/hIgK
(B)/(A) titer (ratio) against the epitope peptide per unit IgG amount [2]: 0.12

B10: humanized 15H11 CDR graft IGKV3-20 / IGHV1-18 (R94P) (antibody, human IgG4 S228P, kappa, V domains shown)
VH: B2 VH with R72T, I76T, S84R, R85S
VL: B2 VL with S81R
notes: hIgG4Pro/hIgK
(B)/(A) titer (ratio) against the epitope peptide per unit IgG amount [2]: 0.13

B11: humanized 15H11 CDR graft IGKV3-20 / IGHV1-46 (R94P) (antibody, human IgG4 S228P, kappa, V domains shown)
VH: B2 VH with I76T, A79V, R85S, D89E
VL: B2 VL with S81R
notes: hIgG4Pro/hIgK
(B)/(A) titer (ratio) against the epitope peptide per unit IgG amount [2]: 0.09

B12: h15H11-55 (antibody, human IgG4 S228P, kappa, V domains shown)
VH: B1 VH
VL: B1 VL with D27E, L37M, N80S, P81S, E83Q, T87V, N89M
notes: hIgG4Pro/hIgK
IC50 [1]: 0.82 nM

B13: h15H11-56 (antibody, human IgG4 S228P, kappa, V domains shown)
VH: B1 VH
VL: B1 VL with D27E, L37M, E83Q, T87V, N89V
notes: hIgG4Pro/hIgK
IC50 [1]: 0.85 nM

B14: h15H11-57 (antibody, human IgG4 S228P, kappa, V domains shown)
VH: B1 VH
VL: B1 VL with D27E, L37M, N80S, P81S, E83Q, T87V, N89V
notes: hIgG4Pro/hIgK
IC50 [1]: 0.89 nM

B15: h15H11-58 (antibody, human IgG4 S228P, kappa, V domains shown)
VH: B1 VH
VL: B1 VL with N80S, P81S, E83Q, T87V, N89M
notes: hIgG4Pro/hIgK
IC50 [1]: 0.78 nM

B16: h15H11-59 (antibody, human IgG4 S228P, kappa, V domains shown)
VH: B1 VH
VL: B1 VL with E83Q, T87V, N89V
notes: hIgG4Pro/hIgK
IC50 [1]: 0.8 nM

B17: h15H11-60 (antibody, human IgG4 S228P, kappa, V domains shown)
VH: B1 VH
VL: B1 VL with N80S, P81S, E83Q, T87V, N89V
notes: hIgG4Pro/hIgK
IC50 [1]: 0.79 nM

B18: h15H11-62 (antibody, human IgG4 S228P, kappa, V domains shown)
VH: B1 VH
VL: B1 VL with N80S, P81S, T87V, N89V
notes: hIgG4Pro/hIgK
IC50 [1]: 0.73 nM

B19: h15H11-63 (antibody, human IgG4 S228P, kappa, V domains shown)
VH: B1 VH
VL: B1 VL with N80S, P81S, E83Q, N89V
notes: hIgG4Pro/hIgK
IC50 [1]: 0.64 nM

B20: humanized 15H11 CDR graft IGKV3-11 / IGHV7-4-1 (R94P) (antibody, human IgG4 S228P, kappa, V domains shown)
VH: B1 VH with R43Q, S44G, L59N, D104N, D105T
VL: B2 VL
notes: hIgG4Pro/hIgK
(B)/(A) titer (ratio) against the epitope peptide per unit IgG amount [2]: 0.18

B21: humanized 15H11 CDR graft IGKV3-20 / IGHV7-4-1 (R94P) (antibody, human IgG4 S228P, kappa, V domains shown)
VH: B1 VH with R43Q, S44G, L59N, D104N, D105T
VL: B2 VL with S81R
notes: hIgG4Pro/hIgK
(B)/(A) titer (ratio) against the epitope peptide per unit IgG amount [2]: 0.15

B22: humanized 15H11 CDR graft IGKV7-3 / IGHV1-2 (antibody, human IgG4 S228P, kappa, V domains shown)
VH: B2 VH with P98R
VL: DIVLTQSPASLAVSPGQRATITCRASESVDNYGISFMNWYQQKPGQPPKLLIYAASSQGSGVPARFSGSGSGTDFTLTINPVEANDTANYYCQQSKEFPWTFGGGTKVEIKR
notes: hIgG4Pro/hIgK
(B)/(A) titer (ratio) against the epitope peptide per unit IgG amount [2]: 0.04

B23: humanized 15H11 CDR graft IGKV7-3 / IGHV1-2 (R94P) (antibody, human IgG4 S228P, kappa, V domains shown)
VH: B2 VH
VL: B22 VL
notes: hIgG4Pro/hIgK
(B)/(A) titer (ratio) against the epitope peptide per unit IgG amount [2]: 0.22

B24: humanized 15H11 CDR graft IGKV7-3 / IGHV1-3 (R94P) (antibody, human IgG4 S228P, kappa, V domains shown)
VH: B2 VH with G44R, M70I, I76A, R85S, D89E
VL: B22 VL
notes: hIgG4Pro/hIgK
(B)/(A) titer (ratio) against the epitope peptide per unit IgG amount [2]: 0.21

B25: humanized 15H11 CDR graft IGKV7-3 / IGHV1-18 (R94P) (antibody, human IgG4 S228P, kappa, V domains shown)
VH: B2 VH with R72T, I76T, S84R, R85S
VL: B22 VL
notes: hIgG4Pro/hIgK
(B)/(A) titer (ratio) against the epitope peptide per unit IgG amount [2]: 0.24

B26: humanized 15H11 CDR graft IGKV7-3 / IGHV1-46 (R94P) (antibody, human IgG4 S228P, kappa, V domains shown)
VH: B2 VH with I76T, A79V, R85S, D89E
VL: B22 VL
notes: hIgG4Pro/hIgK
(B)/(A) titer (ratio) against the epitope peptide per unit IgG amount [2]: 0.18

B27: humanized 15H11 CDR graft IGKV4-1 / IGHV1-2 (R94P) (antibody, human IgG4 S228P, kappa, V domains shown)
VH: B2 VH
VL: B1 VL with D27E, L37M, F40Y, N80S, P81S, M82L, E83Q, T87V, N89V
notes: hIgG4Pro/hIgK
(B)/(A) titer (ratio) against the epitope peptide per unit IgG amount [2]: 0.18

B28: humanized 15H11 CDR graft IGKV4-1 / IGHV1-2 (antibody, human IgG4 S228P, kappa, V domains shown)
VH: B2 VH with P98R
VL: B1 VL with D27E, L37M, F40Y, N80S, P81S, M82L, E83Q, T87V, N89V
notes: hIgG4Pro/hIgK
(B)/(A) titer (ratio) against the epitope peptide per unit IgG amount [2]: 0.03

B29: humanized 15H11 CDR graft IGKV4-1 / IGHV1-3 (R94P) (antibody, human IgG4 S228P, kappa, V domains shown)
VH: B2 VH with G44R, M70I, I76A, R85S, D89E
VL: B1 VL with D27E, L37M, F40Y, N80S, P81S, M82L, E83Q, T87V, N89V
notes: hIgG4Pro/hIgK
(B)/(A) titer (ratio) against the epitope peptide per unit IgG amount [2]: 0.15

B30: humanized 15H11 CDR graft IGKV4-1 / IGHV1-18 (R94P) (antibody, human IgG4 S228P, kappa, V domains shown)
VH: B2 VH with R72T, I76T, S84R, R85S
VL: B1 VL with D27E, L37M, F40Y, N80S, P81S, M82L, E83Q, T87V, N89V
notes: hIgG4Pro/hIgK
(B)/(A) titer (ratio) against the epitope peptide per unit IgG amount [2]: 0.13

B31: humanized 15H11 CDR graft IGKV4-1 / IGHV1-46 (R94P) (antibody, human IgG4 S228P, kappa, V domains shown)
VH: B2 VH with I76T, A79V, R85S, D89E
VL: B1 VL with D27E, L37M, F40Y, N80S, P81S, M82L, E83Q, T87V, N89V
notes: hIgG4Pro/hIgK
(B)/(A) titer (ratio) against the epitope peptide per unit IgG amount [2]: 0.13

B32: humanized 15H11 CDR graft IGKV4-1 / IGHV7-4-1 (R94P) (antibody, human IgG4 S228P, kappa, V domains shown)
VH: B1 VH with R43Q, S44G, L59N, D104N, D105T
VL: B1 VL with D27E, L37M, F40Y, N80S, P81S, M82L, E83Q, T87V, N89V
notes: hIgG4Pro/hIgK
(B)/(A) titer (ratio) against the epitope peptide per unit IgG amount [2]: 0.21
